Reference: patent publication US20190282704A1

Experiments:
[1] = biological target: canine IL-31 (Canine_IL31) (canine); assay: cell-based or functional assay
[2] = biological target: wildtype feline IL-31 (Feline_IL31_wildtype) (feline); assay: cell-based or functional assay
[3] = biological target: canine IL-31 (Canine_IL31) (canine)
[4] = biological target: wildtype feline IL-31 (Feline_IL31_wildtype) (feline)
[5] = biological target: canine IL-31 (Canine_IL31) (canine); assay: SPR (Biacore), immobilised IL-31, 1:1 fit

wildtype feline IL-31 (Feline_IL31_wildtype) (feline), sequence (chain, as listed by the source limits assumed, form in doubt): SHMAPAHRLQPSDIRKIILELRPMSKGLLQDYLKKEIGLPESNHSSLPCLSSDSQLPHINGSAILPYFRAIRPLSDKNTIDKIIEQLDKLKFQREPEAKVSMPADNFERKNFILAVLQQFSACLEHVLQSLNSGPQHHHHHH
canine IL-31 (Canine_IL31) (canine), sequence (chain, as listed by the source limits assumed, form in doubt): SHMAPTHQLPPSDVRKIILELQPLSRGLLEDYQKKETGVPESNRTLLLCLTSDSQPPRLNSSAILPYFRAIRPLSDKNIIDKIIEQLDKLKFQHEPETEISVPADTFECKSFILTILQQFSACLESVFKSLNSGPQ

Row | IC50 against canine IL-31 (pSTAT3; cell type not clear) [1] | IC50, feline IL-31 signaling on the canine DH82 cell line (pSTAT3) [2] | IC50, inhibition of canine IL-31-induced STAT3 phosphorylation, canine DH82 cells [3] | IC50, inhibition of feline IL-31-induced STAT3 phosphorylation, feline FCWF4 cells [4] | IC50 against feline IL-31 induced pSTAT3 signaling in feline FCWF4 cells, against mouse: feline 11E12 chimera [2] | Kd [5] | koff [5] | kon [5] | IC50, inhibition of feline IL-31-induced STAT3 phosphorylation, canine DH82 cells [4] | Binder
1 | 12.5 µg/ml | 0.71 µg/ml | 12.7 µg/mL | 3.11 µg/mL |  |  |  |  |  | 15H05 mouse: canine chimera (antibody) heavy: QVQLQQSAAELARPGASVKMSCKTSGYTFTSYTIHWIKQRPGQGLEWIGNINPTSGYTENNQRFKDKTTLTVDRSSNTAYLQLHSLTSEDSAVYFCARWGFKYDGEWSFDVWGAGTTVTVSSASTTAPSVFPLAPSCGSTSGSTVALACLVSGYFPEPVTVSWNSGSLTSGVHTFPSVLQSSGLYSLSSMVTVPSSRWPSETFTCNVAHPASKTKVDKPVPKRENGRVPRPPDCPKCPAPEMLGGPSVFIFPPKPKDTLLIARTPEVTCVVVDLDPEDPEVQISWFVDGKQMQTAKTQPREEQFNGTYRVVSVLPIGHQDWLKGKQFTCKVNNKALPSPIERTISKARGQAHQPSVYVLPPSREELSKNTVSLTCLIKDFFPPDIDVEWQSNGQQEPESKYRTTPPQLDEDGSYFLYSKLSVDKSRWQRGDTFICAVMHEALHNHYTQESLSHSPGK light: DIQMNQSPSSLSASLGDTITVTCRASQGISIWLSWYQQKPGNIPKVLINKASNLHIGVPPRFSGSGSGTHFTLTITSLQPEDIATYYCLQSQTYPLTFGGGTKLEINRNDAQPAVYLFQPSPDQLHTGSASVVCLLNSFYPKDINVKWKVDGVIQDTGIQESVTEQDKDSTYSLSSTLTMSSTEYLSHELYSCEITHKSLPSTLIKSFQRSEC
2 | 28.6 µg/ml |  |  | 3.25 µg/mL | 2 fold | 0.0129 nM | 1.62e-07 s⁻¹ | 12600 M⁻¹ s⁻¹ | 5.59 µg/mL | mouse: feline 15H05 chimera (antibody) heavy: QVQLQQSAAELARPGASVKMSCKTSGYTFTSYTIHWIKQRPGQGLEWIGNINPTSGYTENNQRFKDKTTLTVDRSSNTAYLQLHSLTSEDSAVYFCARWGFKYDGEWSFDVWGAGTTVTVSSASTTAPSVFPLAPSCGTTSGATVALACLVLGYFPEPVTVSWNSGALTSGVHTFPAVLQASGLYSLSSMVTVPSSRWLSDTFTCNVAHPPSNTKVDKTVRKTDHPPGPKPCDCPKCPPPEAAGAPSIFIFPPKPKDTLSISRTPEVTCLVVDLGPDDSDVQITWFVDNTQVYTAKTSPREEQFNSTYRVVSVLPILHQDWLKGKEFKCKVNSKSLPSPIERTISKAKGQPHEPQVYVLPPAQEELSRNKVSVTCLIKSFHPPDIAVEWEITGQPEPENNYRTTPPQLDSDGTYFVYSKLSVDRSHWQRGNTYTCSVSHEALHSHHTQKSLTQSPGK light: DIQMNQSPSSLSASLGDTITVTCRASQGISIWLSWYQQKPGNIPKVLINKASNLHIGVPPRFSGSGSGTHFTLTITSLQPEDIATYYCLQSQTYPLTFGGGTKLEINRSDAQPSVFLFQPSLDELHTGSASIVCILNDFYPKEVNVKWKVDGVVQNKGIQESTTEQNSKDSTYSLSSTLTMSSTEYQSHEKFSCEVTHKSLASTLVKSFQRSECQRE
